US20260274966A1

Target: CD137 on activated CEMT cells (UniProt Q07011)
Assay: Flow cytometry on PMA/ionomycin-activated CEMT cells, protein at 0.48 nM, detection anti-human Fc-FITC; lower panel 'Cell binding - CD137'

How did the MFI turn out when CET (antibody) was run?
Its MFI is 1.07.
